Experiment: label from the status in PepcDB records

Row | Sequence | protein production
1 | MQHTEERELKKRLMNTARTVSEMTEVKEALARKKQTEAVRHAVEEIRMINEADYIVVMDMNHIRYTHPVSTSIGKKSEGADEEAAFAEHIYFSEAKGEIGTAVRAFYPVKDQDLNQIGVVLVGKTLPGIADILLHLKRDI | failed
2 | KYANGTFFTYRPEAWDWMYTVAEEFDTIVAGLFGLITGGLLSVDSIAGEFENGTISRLYSLPINRWEIYFGKVIEKI | failed
3 | MIYFCHAPNDRAIAEKIYFSLKQTGLTCWIPSQDIMAGQYYVEAIANAIEKSDIVVFIFSSHSNTSIQVIDELQKASSLNKTIIPFCVDRAMPSEPIEHYLSSPYKVDATIGLPDDNIAKLQNIIKQIYNQSSVHNANDINTVKDTFAPSNPLENNTNIIKDASDNNSQESIQFNGVINSANSQPPQNPNLPPQHQMNPNFNNTVNNMDRNMNYPIKQNVRPNPQVKSSNKIKIPLIIGGSIAGGIILLSILFMLGKNLLFSTLINSHRPSDNPVIGSNIRIDGSKYTEEEIIEFTKNAILELDRLQASREFYDTYAYNAPEYDLMRIQENVFFSLMDLDVVRFEEVAILGKNEKEHGIEYLLKVDFVCYADYEYTENNETVHRKGEALLYNNVVILETPNDGLKYLYMEGIFEDELNARNENLESSYREIAESGDVNTEDTIQTYLPDSTDEDTIMSVKDIVKKNDHKVVAVYVDVPGGQSQGSGFFIKDGVIVTNYHVIEGGKSAKILLSNGNYVDVEGVLYTDSDVDIAVLKLVNEVGIEPVTIGQARDSDKGSIAVAIGSPLGLFNTVSTGIISNFWEANGVNLIQISIPITHGNSGGALFNESGKLIGITSSGIGEANLNFAISSTHIIPICEDIKNIPYNQLNAVPLSSAGGNINSITRQAGSSNSNQSSSSGKSLLSSKYRFVNSDKPISNDATYTSDLQTIYDLALNKYYAKEDLYRDLDYAFDYILDYGTKYYLEYLEYILHETYIKEDVENFNKINESVLEVLNTTGEYIEFTADEIEIIGAGIKNDGTIDGIIVRALFYENSEPYVRSKFYFRANYDAWSYVDGFLYVGEVTEK | failed
4 | MKTIEIFDPAMCCPTGLCGTNINPELMRIAVVIETLKRQGVVVTRHNLRDEPQVYVSNKTVNQYLQKNGAEALPITLVDGEIAVSKDYPTTKQMSEWTGINLD | not failed
5 | AKGLRTVKTCVGSDWCRFGTQDSTGLGIRIERFMWGSWTPAKLKMAVSGCPRNCAEATCKDIGVICVDSGFEIHFAGAAGLDIKGTEVLGLVRTEDEALEYIVALTQMYREQARYLERIYKWAKRIGLEEIRRQIMGDAEK | failed
6 | MKELQEKNEQITLLVEMSDIMLACGSQEELSEVMAKYSQRLLQFSSGYLFIMHPSKNYLEKAASWGNPHPHDLTFTPEQCWAIRLGRIHYAGSSRIELMCSHMMFDEQPELSLLCVPLMAQNDIYGLLYLEVGLKFDENQQLLITAFAELTALALANVRLRENLRYQSIR | failed
7 | MNRLRTSLTALAAAITLSGLANAATRYEELANQPFEKGFPTETAARNLIDELVFQRAVQSYLWALPAINIWSMKEASEKEFGAGYNILPTWKKRINAKTLVTTPNSDLVYAMSYLDLQKYGPLVVEAPPGVQGMFDDFFQRPIVGPTIDGKTWRGDVGLAGPDKGKGGTYVLLPPDYKGPEPTEGYVYRSRTNNVFLFWRTFFKDPKDLSVPVAEVERTKIYPLGKKDEALPMQFPDATGAPINMLFPEDGRYFDMLSRFIDAEAVDPADMDMRGFLHTLGIEKGKPFAPDAQRRKLLDEAARTAFKMSKVVTSHLLLKEPGGLYYKDRQYVNTFAGENTEFQSSGSFTNLEQRVAFFTSAYSDSPGMVMNMVGAGAKYPATTRDADGKFLDGAQTYKLNLPANVPAALFWSVTAYDNLTASGLDNGQPFPSLNQMDKPVQNSDGSTDIYFGPKSPGEGKNWIKTVPDKGFLVIVRLYGPKQAFFDQSWKPSDLLKQ | failed
8 | EVQKPLHEQLWYHGAIPRAEVAELLVHSGDFLVRESQGKQEYVLSVLWDGLPRHFIIQSLDNLYRLEGEGFPSIPLLIDHLLSTQQPLTKKSGVVLHRAVP | not failed
9 | MTDAHTVCPKFESAFQLLGKRWTGLIINVLLTGPKRFKQVAAEIPQMSDRVLAERLKELEEMDICLRQVYPETPVRIEYELTEKGKALQEVMLEVQCWADKWVEVPN | failed
10 | MKWLLVASAALYLFGSFRRPLFALGLGAGLAYLALRGISLGRLPLVGPHDTIAFFSASIGLMTLPFLFSPSLRNSSAFPWATGGTAAVFALFSLAFPALAMPLPPILNTLWFELHVALAFFAYALFTIGAIMGVLFLAGGERRLLDLQYRAALVGYTFFSGSMVAGGIWGYYAWGTYWLWTPKELWTSILWIFYTFWLHLRLRGAGGDRLLAWTGILGFGVMLFTYLGVSMLMKSSHSF | failed
11 | MDPKKADIIRLEALPQDLLGGIVAKVGATTAEDFHNCILVCKELGASANDKHVFKTLNLALLVKKPLSGTQTPSYYENMS | not failed
12 | MGHHHHHHSHMATGQDRVVALVDMDCFFVQVEQRQNPHLRNKPCAVVQYKSWKGGGIIAVSYEARAFGVTRSMWADDAKKLCPDLLLAQVRESRGKANLTKYREASVEVMEIMSRFAVIERASIDEAYVDLTSAVQERLQKLQGQPISADLLPSTYIEGLPQGPTTAEETVQKEGMRKQGLFQWLDSLQIDNLTSPDLQLTVGAVIVEEMRAAIERETGFQCSAGISHNKVLAKLACGLNKPNRQTLVSHGSVPQLFSQMPIRKIRSLGGKLGASVIEILGIEYMGELTQFTESQLQSHFGEKNGSWLYAMCRGIEHDPVKPRQLP | not failed
13 | MTENNQTAPNPESLDGLSYEEAREQLVAVVGRLEAGGASLEESLALWERGEALAKRCEDWLEGARKRLATARDASSDGGTPA | failed
14 | MVLYFLSSIIIAPIKTGDKAPQVDECCLKTVSDLTFFTNNEKYIWPVPDFCVRMELLAFEAIPQLSKKIIEDIPGAYQGCPRMCKVKFKKNHLKGFTLDTIYAELGTTHVIDCIVTPRIEEQELMKTIMEEEDDDDVADVVVESWLKRHKEGRLIMFDELYQQDIQTLKITSSR | failed
15 | MNRLREALKERGITQTELSTRLGKSFNMVNLYVANKHQPSIPTLFQIAEILDMDVRDLLVSNKQQNK | failed
16 | IQRSIERALDFRKEVQRLREESDGWFFDIWQPEAVDKAECWPVAPGEDWHGFKDADADHMYLDPVKVTILTPGMDEQGNMDEEGIPAALVAKFLDERGVVVEKTGPYNLLFLFSIGIDKTRAMGLLRGLTEFKRAYDLNLRVKNMLPDLYAEDPDFYRNMRIQDLAQGIH | failed
17 | MAAVWQQVLAVDARYNAYRTPTFPQFRTQYIRRRSQLLRENAKAGHPPALRRQYLRLRGQLLGQRYGPLSEPGSARAYSNSIVRSSRTTLDRMEDFEDDPRALGARGHRRSVSRGSYQLQAQMNRAVYEDRPPGSVVPTSAAEASRAMAGDTSLSENYAFAGMYHVFDQHVDEAVPRVRFANDDRHRLACCSLDGSISLCQLVPAPPTVLRVLRGHTRGVSDFAWSLSNDILVSTSLDATMRIWASEDGRCIREIPDPDSAELLCCTFQPVNNNLTVVGNAKHNVHVMNISTGKKVKGGSSKLTGRVLALSFDAPGRLLWAGDDRGSVFSFLFDMATGKLTKAKRLVVHEGSPVTSISARSWVSREARDPSLLINACLNKLLLYRVVDNEGTLQLKRSFPIEQSSHPVRSIFCPLMSFRQGACVVTGSEDMCVHFFDVERAAKAAVNKLQGHSAPVLDVSFNCDESLLASSDASGMVIVWRREQK | failed
18 | EEKYVTVQPYTSQSKDEIGFEKGVTVEVIRKNLEGWWYIRYLGKEGWAPASYLKKAKD | not failed
19 | MSFRAFLPAAMLVTVAGFWLGASTPGVAQYCEGTVHGLSGRYNLATGSGFLAVRTRPNSSSRMIGQLFNGDHVEIFDRRGNWYQVEIGGSTGWANARWLRNDCRY | failed
20 | MIEQPYPSVADTDAAPPTAQGKIDQYFQISARGSTQRREVVAGITTFMAMVYAVFVVPGMLGKAGFDTSAVFVAVCLTTAFGSLLMGLWAKLPIAIGCAISLTAFMAFGLVLGQHLSPAVALGAVFLMGVVFTAISVTGVRTWILRNLPAGVAHGAGIGIGLFLLLIASNEVGLVIKNPGPGLPVSLGNITAFPVMMSILGLAAIFGLERRRVPGGILLVIVAISALGLVFDPSVKFTGIFALPTLSAPGHTSLIGAMDIRGALSAAVLPSVLALVMTAVFDATGTIRAVAGQANQLDATGRIHNGGRALTADSVSSIFSAFFGGAPAAAYIESTVGVAAGARTGLAAVTVGALFLAVMFFSPLAGLVPSYATAPALMYVGLLMLSSVSRLHMDDLVDALSGLVCAVFIVLTCNIVTGIMLGFCTLVIGRIVSGEWRKLNIGTVAIAVALAAFYAGGWAI | failed
21 | MTETKTIRFLSIIGCLLAGMAASCSSRQVAPNEEGISVQKMTGFPEGEPGFSLGVSACYAGIYQGELLIAGGCNFPETPAAEGGKKKFYQGIYAADASADSVFVWRKVGQLPVAAAYGVSVSTPRGIVCVGGSNENGSLSTVYRLSLSDDKQAVIVDTLPSLPCTMDNMSGSVVDYTLFVAGGNVNGKPSNGLYCLNLGNPETGWQQLPDFPGAPRVQPVCVGQRKENETLLYLWGGFSGAFDGRSATLSTDGYCYSPSLQQWQPVSTPIGSDSVPVALGGGAGIALTDSLILCTGGVNKDIFLSALQREEMMKAAVTGGNQAAVDSLKSEAKTYMLHPAEWYRFNDRILIYNTRRDKWEEAVRSQDVARAGAALTTGQGQTFFNINGELKPGIRTPEIAKIMID | failed
22 | MSSSTERPALPLNECDPHWLRNLWVCVFGVFTTIVAMTLLLPFLPLYVEQLGVDNHAAVVLWSGATYGATFLSAAITAPLWGRLGDRYGRKLMLIRASLGMAVAMSLIGLAQTVWQLLLLRLLAGLLGGYASGATILVATQTPKARSGWALGVLSSGIMAGSLAGPLMGGVLPPLIGIRNTFFLAGGVIFITFLATLLLLREMPRKAPSRATDSALPAVVKLSGEQRRMITCMFVVASLVMFSTMSVEPIITVYLRQLKTDNVTMMAGVVMSATALGSILAASRLGRLADRIGYLPVLTSCLAMTALTLIPQAWVSNVWQLAALRFFMGLALGGLLPCVAAIIRHTVPNEVAGRMLGYSTSSQYLGQVLGPLAGGLLGGYLGIGSVFLGTAMVLAACSIMVGRMDMIRTPASSKL | failed
23 | MATISAKLVKELREKTGAGMMDCKKALTETDGDIDKAIDYLREKGIAKAAKKADRIAAEGLVHVETKGNDAVIVEINSETDFVARNEGFQELVKEIANQVLDTKAETVEALMETTLPNGKSVDERIKEAISTIGEKLSVRRFAIRTKTDNDAFGAYLHMGGRIGVLTVVEGSTDEEAARDVAMHIAAINPKYVSSEQVSEEEINHEREVLKQQALNEGKPENIVEKMVEGRLRKYLQEICAVDQDFVKNPDVTVEAFLKTKGGKLVDFVRYEVGEGMEKREENFADEVKGQMK | failed
